In patent US20230391845A1, “GLP-1, GIP AND GLUCAGON RECEPTOR TRIPLE AGONISTS” (priority 2020, published 2023):
Where no end group is shown, it is not given here. [ ]: non-standard residue; d: D form. Aib = CC(C)(N)C(=O)O

T1: human glucose-dependent insulinotropic polypeptide receptor (human, UniProt P48546 22-466)
T1 sequence (looked up): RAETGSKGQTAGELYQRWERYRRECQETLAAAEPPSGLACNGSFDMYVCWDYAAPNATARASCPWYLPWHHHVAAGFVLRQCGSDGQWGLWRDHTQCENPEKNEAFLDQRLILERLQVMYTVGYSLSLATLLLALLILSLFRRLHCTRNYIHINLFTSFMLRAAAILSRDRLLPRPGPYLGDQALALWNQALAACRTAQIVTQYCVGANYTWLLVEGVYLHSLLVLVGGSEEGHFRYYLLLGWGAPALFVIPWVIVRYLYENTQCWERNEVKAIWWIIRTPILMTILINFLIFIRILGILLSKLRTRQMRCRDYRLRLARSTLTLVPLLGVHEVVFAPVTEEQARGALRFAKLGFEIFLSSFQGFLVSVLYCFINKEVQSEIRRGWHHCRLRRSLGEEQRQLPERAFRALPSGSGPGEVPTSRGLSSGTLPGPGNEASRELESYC


Columns and labels:
Assay in all cases: cell-based or functional assay
[1] = target: human glucagon-like peptide 1 receptor (human, UniProt P43220 24-463)
[2] = target: T1, human glucose-dependent insulinotropic …
human glucagon receptor = human glucagon receptor (human, UniProt P47871 26-477)
Chain of human glucagon receptor (P47871 26-477): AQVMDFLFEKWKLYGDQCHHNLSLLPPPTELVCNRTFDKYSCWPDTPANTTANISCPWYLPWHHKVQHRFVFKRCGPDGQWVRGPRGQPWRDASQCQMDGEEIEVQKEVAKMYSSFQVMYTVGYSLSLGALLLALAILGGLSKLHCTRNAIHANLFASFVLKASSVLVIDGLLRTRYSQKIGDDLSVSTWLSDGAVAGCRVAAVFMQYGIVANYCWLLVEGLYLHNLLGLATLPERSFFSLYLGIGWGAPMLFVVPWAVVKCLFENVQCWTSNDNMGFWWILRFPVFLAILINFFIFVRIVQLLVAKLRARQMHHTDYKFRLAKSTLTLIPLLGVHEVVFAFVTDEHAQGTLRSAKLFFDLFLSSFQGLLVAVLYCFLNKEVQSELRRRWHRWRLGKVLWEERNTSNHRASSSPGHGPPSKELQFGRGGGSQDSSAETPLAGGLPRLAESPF

Binder	hGLP-1R CRE Luc EC50 (pM) [1] [pM]	hGIPR CRE Luc EC50 (pM) [2] [pM]	hGcgR CRE Luc EC50 (pM) (human glucagon receptor)
Y[Aib]QGTFTSDYSYYLEKQAA[Aib]EFVQWLLEGGPSSGAPPPS-NH2 (not fully specified (residue 16); printed as Y-Aib-QGTFTSDYSYYLE-K[(2S)-2-amino-6-[[(2S)-2-amino-6-[[(4S)-4-carboxy-4-(19-carboxynonadecanoylamino)butanoyl]amino]hexanoyl]amino]hexanoyl]-QAA-Aib-EFVQWLLEGGPSSGAPPPS-NH2) [Compound No. 47]	5.6	14.9	28.7
Y[Aib]QGTFTSDYSYLLEKQAA[Aib]EFVQWLLEGGPSSGAPPPS-NH2 (not fully specified (residue 16); printed as Y-Aib-QGTFTSDYSYLLE-K[(2S)-2-amino-6-[[(2S)-2-amino-6-[[(4S)-4-carboxy-4-(19-carboxynonadecanoylamino)butanoyl]amino]hexanoyl]amino]hexanoyl]-QAA-Aib-EFVQWLLEGGPSSGAPPPS-NH2) [Compound No. 48]	10.1	9.2	12.6
H[Aib]HGTFTSDYSILLEKQAAREFVQWLLEGGPSSGAPPPS-OH (not fully specified (residue 16); printed as H-Aib-HGTFTSDYSILLE-K[(2S)-2-amino-6-[[(2S)-2-amino-6-[[(4S)-4-carboxy-4-(17-carboxyheptadecanoylamino)butanoyl]amino]hexanoyl]amino]hexanoyl]-QAAREFVQWLLEGGPSSGAPPPS-OH) [Compound No. 54]	1.5	28	22.8
H[Aib]HGTFTSDYSILLEKQAAEEFVQWLLEGGPSSGAPPPS-OH (not fully specified (residue 16); printed as H-Aib-HGTFTSDYSILLE-K[(2S)-2-amino-6-[[(2S)-2-amino-6-[[(4S)-4-carboxy-4-(19-carboxynonadecanoylamino)butanoyl]amino]hexanoyl]amino]hexanoyl]-QAAEEFVQWLLEGGPSSGAPPPS-OH) [Compound No. 50]	1	1.9	18.5
H[Aib]HGTFTSDYSILLEKQAAEEFVQWLLEGGPSSGAPPPS-OH (not fully specified (residue 16); printed as H-Aib-HGTFTSDYSILLE-K[(2S)-2-amino-6-[[(2S)-2-amino-6-[[(4S)-4-carboxy-4-(17-carboxyheptadecanoylamino)butanoyl]amino]hexanoyl]amino]hexanoyl]-QAAEEFVQWLLEGGPSSGAPPPS-OH) [Compound No. 51]	0.7	1.8	79.9
H[Aib]HGTFTSDYSILLEKQAAHEFVQWLLEGGPSSGAPPPS-OH (not fully specified (residue 16); printed as H-Aib-HGTFTSDYSILLE-K[(2S)-2-amino-6-[[(2S)-2-amino-6-[[(4S)-4-carboxy-4-(17-carboxyheptadecanoylamino)butanoyl]amino]hexanoyl]amino]hexanoyl]-QAAHEFVQWLLEGGPSSGAPPPS-OH) [Compound No. 56]	1.1	2.3	6.4
Y[Aib]QGTFTSDYSIYLDKQAA[Aib]KFVQWLLEGGPSSGAPPPS-NH2 (not fully specified (residue 21); printed as Y-Aib-QGTFTSDYSIYLDKQAA-Aib-K[2-[2-[2-[[2-[2-[2-[[(4S)-4-carboxy-4-(17-carboxyheptadecanoylamino)butanoyl]amino]ethoxy]ethoxy]acetyl]amino]ethoxy]ethoxy]acetyl]-FVQWLLEGGPSSGAPPPS-NH2) [Compound No. 4]	9.4	60.3	31.4
H[Aib]HGTFTSDYSILLEKQAAQEFVQWLLEGGPSSGAPPPS-OH (not fully specified (residue 16); printed as H-Aib-HGTFTSDYSILLE-K[(2S)-2-amino-6-[[(2S)-2-amino-6-[[(4S)-4-carboxy-4-(17-carboxyheptadecanoylamino)butanoyl]amino]hexanoyl]amino]hexanoyl]-QAAQEFVQWLLEGGPSSGAPPPS-OH) [Compound No. 52]	0.8	6.6	14.9
H[Aib]HGTFTSDYSILLEKQAAQEFVQWLLEGGPSSGAPPPS-OH (not fully specified (residue 16); printed as H-Aib-HGTFTSDYSILLE-K[(2S)-2-amino-6-[[(2S)-2-amino-6-[[(4S)-4-carboxy-4-(19-carboxynonadecanoylamino)butanoyl]amino]hexanoyl]amino]hexanoyl]-QAAQEFVQWLLEGGPSSGAPPPS-OH) [Compound No. 53]	2.7	4.8	22
H[Aib]HGTFTSDYSILLEKQAAEEFVQWLLEGGPSSGAPPPS-NH2 (not fully specified (residue 16); printed as H-Aib-HGTFTSDYSILLE-K[(2S)-2-amino-6-[[(2S)-2-amino-6-[[(4S)-4-carboxy-4-(19-carboxynonadecanoylamino)butanoyl]amino]hexanoyl]amino]hexanoyl]-QAAEEFVQWLLEGGPSSGAPPPS-NH2) [Compound No. 49]	1.4	2.1	3.5
H[Aib]HGTFTSDYSILLEKQAAREFVQWLLEGGPSSGAPPPS-OH (not fully specified (residue 16); printed as H-Aib-HGTFTSDYSILLE-K[(2S)-2-amino-6-[[(2S)-2-amino-6-[[(4S)-4-carboxy-4-(19-carboxynonadecanoylamino)butanoyl]amino]hexanoyl]amino]hexanoyl]-QAAREFVQWLLEGGPSSGAPPPS-OH) [Compound No. 55]	2	7.5	18.8
